Experimental data published in patent US20140065670A1.

How the values were obtained:
[1] = molecular target: CEA (carcinoembryonic antigen) (UniProt P06731); assay: competitive ELISA on CEA, competitor anti-CEA monoclonal antibody; bsctDb as culture supernatant
lysozyme (antigen) = lysozyme (antigen) (UniProt P00698); assay: competitive ELISA on lysozyme, competitor anti-lysozyme Fab antibody fragment; bsctDb as culture supernatant

D1.3-A5B7 bispecific single chain tetravalent diabody (bispecific antibody)
% Inhibition in CEA Competition ELISA [1]: 100% | % Inhibition in D1.3 Competition ELISA (lysozyme (antigen)): 100%
